The data set can be described thus: soluble on expression in E. coli; label from the status in PepcDB or PDB records.
Regarding “MSQQKICFIGAGNMTRSIISGLIRSGYPASQVQATNPSQGKLDALATDFGVRVSQDNVSAAQDADVIILSVKPQLMEQVCQALQGIDMSNKLLITIAAGIKASRYSEYLAQPITLIRTMPNTPMQIGVGMTGLYAPQSLSDAQKAIAERLMSSGGEIVWVNEESDINQVIALAGSSPAYFFLLMESMIDAGKQMGMDEAKARSLVQQAALGAAMMAKQNPELTLGNLRENVTSKGGTTAQAIATFEAADLRGVVKKAMENCINRAEEMAKTF”, the “soluble on expression in E. coli” value is given as “soluble”.
In the case of “MSQRTSEENRYEQLHRFAAKIHSTMQIDDVLEEIICTLQNVYPAFTYHLLLSHDNHVCGNLPIKTLALDESEGQPAALRAFLTGQVQCEETAAPPRSVLYAPIKGVQAVYGVIQIIAPYAAPFPKREINFISLLAGTAGRALENAKLYEQSRRLEHHHHHH”, the “soluble on expression in E. coli” value was “soluble”.
The result for “MSQSNTLTVQILDKEYCINCPDDERANLESAARYLDGKMREIRSSGKVIGADRVAVMAALNITHDLLHRKERLDQESSSTRERVRELLDRVDRALANPADAGEA” reads “soluble”.
“MSQTAAPLAQLNAMDTAQFVRTLGGIYEHSPWVAEQAAGQRPFASADALAAAMRRAVDGAGEGPQLKLVRAHPELAGKAAVRGELTAESTREQASAGLDQCSPEEFARLQALNARYNDKFGFPFILAVRGYDRHGIIDVFARRLENDRATELRASLEQIHRIAGFRLHDLISGKLAAALEHHHHHH”: the “soluble on expression in E. coli” value was “not soluble”.
The result for “MSQTGEKGKFPDAAGYVGFANLPNQVHRKSVKKGFEFTLMVVGESGLGKSTLINSLFLTDLYPERYIPGAAEKIERTVQIEASTVEIEERGVKLRLTVVDTPGYGDAINSQDCFKTIIQYIDNQFERYLHDESGLNRRHIVDNRVHCCFYFISPFGHGLKPLDVEFMKAIHSKVNIVPVIAKADTLTLKERDRLKRRILDEISEHGIRIYQLPDADSDEDEEFKDFVPNRCIWSSLQFYQMHIIAITFIDIMFVFKKAAHVISTTIIMVKLNIKCQ” reads “not soluble”; that for “MSRAVTRSRLNSTTDQFMAEKINESDILERLNQTHTVRGFFITTVDVLTEAIDALMQRIFRKDNFAVKSVVEPLLHDTGPLGDLTVRLKLLFGLGVIPDEVFHDIEHLIKLRNQLNHDATEYQFTDPQILAPIKALNLVKKMGMLHLNVVEPDDDIDLSFYHLQLQRQQQVIKSGLSLAIIQICNALNK”, “not soluble”.
Next, “MSRIEAVFFDCDGTLVDSEVICSRAYVTMFQEFGITLDPEEVFKRFKGVKLYEIIDIVSLEHGVTLAKTEAEHVYRAEVARLFDSAIEGAGALLSAITAPMCVVSNGPNNKMQHSMGKLNMLHYFPDKLFSGYDIQRWKPDPALMFHAAKAMNVNVENCILVDDSVAGAQSGIDAGMEVFYFCADPHNKPIVHPKVTTFTHLSQLPELWKARGWDITA”: “not soluble”.
For “MSRIGLQQLNNSARNSPFGSEKATGTKQIPEPLKLTAQLKKYQPITPSPLASATTITPVLSPFDVFCDDDQEAKNVETQMFEYGTVSTQTIINVPHVQPKITEADLTSEKPTVNYLRVMADRLQMDLDDEMDRNQRLVAELGDLDEKMRKIDDDTEILLEVLADIDEEQQTDEEIGTAQL”, the “soluble on expression in E. coli” value is reported as “not soluble”.
Next, “MSRKRTENGSESGPATSHVPVDRFGFLKQEHANSPERFSKSKTTSSTDHDREERKVRKWRKMIGVGGSDWKHYVRRKPNVVRRRIRKGIPDCLRGLVWQLISGSRDLLLMNPGVYEQLVIYETSASELDIIRDISRTFPSHVFFQKRHGPGQRSLYNVLKAYSVYDRDVGYVQGMGFIAGLLLLYMSEEDAFWLLVALLKGAVHAPMEGLYHAGLPLVQQYLFQLESLVKELIPKLGEHFTQEMINPSMYASQWFITVFSYSFPFPLALRIWDVFLSEGVKIVFKVGLALLKYCQDELVSKVTV”: “not soluble”; “MSRLEAWAYLSRVFEGPSRSLQKLLETESDVEKIAWGIKKREAWLGPILFETASRYSVSLEQEDLTTIKNLGGRLVTPDDDEWPREKFETAFGFAASGTSSLVRSYQSDAVAPHALWVRGAPLSTTVDRSVAIVGTRAMSHYGKSATSMLAAGIADHHWTIVSGGALGVDTVAHTEALQRQKPTVAVCARGLDAPYPRKNAELLRSIVETGCLVSEYAPGLTPHRHRFLTRNRLVAALSQGTVVVEAAWRSGALNTLSWASALGRVAMAVPGPVTNTGSLGCHERIRNKEAELVCSAEEILALVGTLGEFDPNGQYELQFAADPIQSLSRNEMRVFDSLDANPHTTDTVAAAAGIPIGLCVHILRDLEKKQLVMREGAHWHRC”: “not soluble”; “MSRLEIYSPEGLRLDGRRWNELRRFESSINTHPHAADGSSYMEQGNNKIITLVKGPKEPRLKSQMDTSKALLNVSVNITKFSKFERSKSSHKNERRVLEIQTSLVRMFEKNVMLNIYPRTVIDIEIHVLEQDGGIMGSLINGITLALIDAGISMFDYISGISVGLYDTTPLLDTNSLEENAMSTVTLGVVGKSEKLSLLLVEDKIPLDRLENVLAIGIAGAHRVRDLMDEELRKHAQKRVSNASAR”: “not soluble”.
“MSRNLDSPVQTQMAVAVFKTPLTGASKMEGKQHHKHQHLQRQSSGRRVFVQTETGCVLGMELDRSDNVHTVKRRLQIALNFPTEESSLTYGDMVLTNDLSAVRNDSPLLLKRNFMHRSSSTPCLSPTGRDLQQKDRSGPIEILGHSDCFSIVKHMVKDIVKAMKMGVEPLPVHSGLGGAYYFRNKRGESVAIVKPTDEEPFAPNNPKGFVGKALGQPGLKSSVRVGETGFREVAAYLLDYGRFANVPPTALVKITHSVFNVNDGVKGNKPREKKLVSKIASFQKFVAHDFDASDHGTSSFPVTSVHRIGILDIRIFNTDRHGGNLLVKKLDGVGMFGQVELIPIDHGLCLPETLEDPYFEWIHWPQASLPFSDEEVDYIQSLDPVKDCDMLRRELPMIREACLRVLVLCTIFLKEASAYGLCLAEIGEMMTREFRPGEEEPSELEVVCIEAKRSVTERDVFSPRSDVVGEAEFQFDLDCDDLESVYSSKIQLTDDYFTKNPFSNGRSSLGKLEESIKEEEEDEEEEEDKTENTVPMIIMKDSFFSSAAFHDKAPSLSKLSTSMKNTHLSDTTRKNPKPLTRGKSENTSSGHKSANEQLPVSASFVKVADMKEDEWVLFLERFQELLGPAFAKRKTATLSKRQRLGTSCQF”: the “soluble on expression in E. coli” value is recorded as “not soluble”.
Next, “MSRSEFPNSKCLICGSICTAKFHFGGLSCNACASFFRRTVSLNIRYLCKNSNNCITSPGQRTFCKACRYESCVDKAGMKRDFVQQRRSTNATPKYILNSTSGSSNREVVRGFITDSNSHLVTQTDHLRNIDNNEHCKDMKKYSDLLEISHMNLLRFYVKQVEPEKKELKNILQIKSINDLMITCAYDNGSAMESCVHCPGTGKLSQEDVRLLQKSFQFAHTWLDSTWQYSIATDIDESEVSGESENLSQFISHIKSTLGACLANLKLDVYEFAAFKSFCVWSIGAQGATESMKVVAQEHYEAVASALKMYYKTFTSMSDSEIATRIEEISFGRSSDVQMIYDETIKLYNKIGIPKSLFFEGN”: “not soluble”; “MSRTQFEPAETYTAYTAYDEAYEAHEAYEAHEAYEAHETYERPAPYDLHSAPTLPYGGTYPSAPPPVHEPTVPALPRQSDGRAERRRRARGAGRADASLRRLVPRALVVAFLAGGTTAFVAKDKAVELTVDGSPRTLHTFADDVSELLAEEGVQVGAHDVIAPAPGTPLTSGEDVTVHHGRPVLLTLDGHRRQVWTTAGTVAGALRQLGVRTQGAYLSTGPSRRIGREGLALVVRTERVVTVMADGRTRTVRTNAATVGEVVEEAGITLRGEDTTSVPATGFPRDGQTVTVLRITGSQEVREDPIPFDERRAEDASLFRGTEVVQEAGRPGLRRTTYALRTVNGVRQKPRRLRTEVVREPSPRIVRVGTRPRPASVHGADHLNWQGLAACESGGRADAVDPSGTYGGLYQFDSATWHGLGGEGRPEDASAAEQTYRAQKLYVRSGADAWPHCGARLRELEHHHHHH”: “not soluble”.
Next, “MSRYGKNLVHYIIVEHDDQRGQKPIDDDDEKNFYYHCSFTFETFFRATAFLLAPAVCAVREVPCRLTRTRYNATEYIEGYGWMISLQQGLGVAEFYRPWPLSVQLQRYTTPSRRSRFAVLTPQRKCHQNEANGQDLSLLILLSRIYPLCSNTSQTRRVAARKGKLS”: “not soluble”.
The result for “MSSAAKNFYQVVKSAPKGRFKGIKRDYTVEDVLKLRGSIDIDYTLATRGANKLWQLLHTEPFVPALGAQTGNQAVQMVRAGLKAIYLSGWQVAADANSAGDMYPDQSLYPANSGPELAKRINRSLRRADQIEACEAEDYLAQRDWYAPIVADAEAGFGGALNCFELMKAYIEAGAAGVHYEDQLGSEKKCGHMGGKVLIPTAQHIRHLNASRLAADVCGVPTIIVARTDAESSRLLTSDIDPRDHPYIDYEAGRTIEGFYRLKDSTAIQYCIDRAIQYAPYTDLIWMETSHPTIADAREFAEGVHKQYPDKMFAYNCSPSFNWKKHLSPSQMEKFQKELGAMGFKYQFITLAGYHANSYSMFDLARNYKEKGMLAYSGLQEGEFAAEKHGYTAVKHQREVGTGYFDAVSRAVTGGLSSTTALSGSTEEAQFQTAVASQDEEILSLTAQNVAGDEKILTPDALRFLHDLNTEFNPRRLRLLSKRNQVQADINNSLWFPDFNKETEVLRSDQGWKGAEIPRDLQDRRVEITGPTDRKMVINAMNSGANVFMADFEDSNSPTWRNQLEGQINLYDAVRNNISYTHPTTKKEYTLNEKHAVLKVRPRGWHLPEKHVLIHNQPTSGSLFDFGLFVFHNAKALIAQGSGPYFYLPKLQSAEEAQLWADVFKYTEDKLGLARGTIKCTVLIEHLLASFQLHEIIHALKDNIVGLNCGRWDYIFSYIKTFQNHRKFLLPDRFQIGMTAPFMRNYSLEVIKACHLRGIHAMGGMAAQIPIKHDQVANDKAFALVRADKEREATDGHDGTWVAHPGLVPLAKRVFDQMMPKPNQISKNLTRANCTKEDLTVIPEGTRTEAGFRHNISVTLGYLDSWLRGTGCVPLYNLMEDAATAEISRAQLWQWLHHDAKLEDGRTIDAGLVKQTIAAETERRLIRAGSVVNRIPEAADLLEKFVTEEKMSDFLTTDAYDRLVSEGY” reads “not soluble”.
With “MSSAGVALSPVRSEPLIMPLVRANSCLDSYPDDTIMIYLTLPGSVIPMRVLESDSIESVKLRIQSYRGFVVRNQKLVFGGRELARSNSNMRDYGVSEGNILHLVLKLSDLQVLDVKTTCGKHCRFHVERGRNIGYVKKQISKKRGDFVDPDEQEILYEGEKLEDQSLINDICRNDDSVLHLLVRRSAKVRVKPVEKNFELSIVAPQAKDKKGREAKSIVPPKKLSLEPVVVNSKAKVPLVVKDMIQSASDGLKSGNSPVRSSEGTGGAYFMQGPSGNKFVGVFKPIDEEPMAENNPQGLPLSPNGEGLKKGTKVGEGALREVAAYILDHPKSGNKSMFGEEIGFAGVPPTAMIECLHPGFNHPKGIKTKIGSLQMFTENDGSCEDMGPLSFPVEEVHKISVLDIRLANADRHGGNILMTKDESGKLVLVPIDHGYCLPESFEDCTFEWLYWPQARKPYSAETQEYIRSLDAEEDIDLLKFHGWKMPAETAQTLRISTMLLKKGVERGLTAFEIGTIMCRETLSKKSLVEEMVEEAQEAVLPGTSEAAFLEALSDVMDYHLDHSQEH”, the “soluble on expression in E. coli” value is recorded as “not soluble”.

Values taken from the DeepSol protein solubility set.
